{"source": "paper PMC7305299", "about": "“Nonsense-mediated mRNA decay factor UPF1 promotes aggresome formation” (Nature Communications, 2020)", "binders": {"B1": {"name": "DCP1A, cellular (natural protein, human (endogenous in HEK293T), UniProt Q9NPI6 1-582, looked up)", "chain": "MEALSRAGQEMSLAALKQHDPYITSIADLTGQVALYTFCPKANQWEKTDIEGTLFVYRRSASPYHGFTIVNRLNMHNLVEPVNKDLEFQLHEPFLLYRNASLSIYSIWFYDKNDCHRIAKLMADVVEEETRRSQQAARDKQSPSQANGCSDHRPIDILEMLSRAKDEYERNQMGDSNISSPGLQPSTQLSNLGSTETLEEMPSGSQDKSAPSGHKHLTVEELFGTSLPKEQPAVVGLDSEEMERLPGDASQKEPNSFLPFPFEQLGGAPQSETLGVPSAAHHSVQPEITTPVLITPASITQSNEKHAPTYTIPLSPVLSPTLPAEAPTAQVPPSLPRNSTMMQAVKTTPRQRSPLLNQPVPELSHASLIANQSPFRAPLNVTNTAGTSLPSVDLLQKLRLTPQHDQIQTQPLGKGAMVASFSPAAGQLATPESFIEPPSKTAAARVAASASLSNMVLAPLQSMQQNQDPEVFVQPKVLSSAIPVAGAPLVTATTTAVSSVLLAPSVFQQTVTRSSDLERKASSPSPLTIGTPESQRKPSIILSKSQLQDTLIHLIKNDSSFLSTLHEVYLQVLTKNKDNHNL", "notes": "DCP1A (component of the decapping complex), cellular protein co-immunopurified from HEK293T extracts; source: endogenous, HEK293T extract"}}, "biological_target": "T1, FLAG-UPF1-HP (UniProt Q92900-2 1-1118, G495R | G497E, hyperphosphorylated in cells (detected with an anti-phospho-(S/T)Q antibody); sites not stated)", "T1 construct": "UPF1 with G495R and G497E in the helicase domain; also called FLAG-UPF1-(G495R/G497E); hyperphosphorylated UPF1; source: HEK293T, transiently transfected (pcDNA3-FLAG-UPF1-HP), in RNase A-treated cell extract", "T1 sequence (looked up)": "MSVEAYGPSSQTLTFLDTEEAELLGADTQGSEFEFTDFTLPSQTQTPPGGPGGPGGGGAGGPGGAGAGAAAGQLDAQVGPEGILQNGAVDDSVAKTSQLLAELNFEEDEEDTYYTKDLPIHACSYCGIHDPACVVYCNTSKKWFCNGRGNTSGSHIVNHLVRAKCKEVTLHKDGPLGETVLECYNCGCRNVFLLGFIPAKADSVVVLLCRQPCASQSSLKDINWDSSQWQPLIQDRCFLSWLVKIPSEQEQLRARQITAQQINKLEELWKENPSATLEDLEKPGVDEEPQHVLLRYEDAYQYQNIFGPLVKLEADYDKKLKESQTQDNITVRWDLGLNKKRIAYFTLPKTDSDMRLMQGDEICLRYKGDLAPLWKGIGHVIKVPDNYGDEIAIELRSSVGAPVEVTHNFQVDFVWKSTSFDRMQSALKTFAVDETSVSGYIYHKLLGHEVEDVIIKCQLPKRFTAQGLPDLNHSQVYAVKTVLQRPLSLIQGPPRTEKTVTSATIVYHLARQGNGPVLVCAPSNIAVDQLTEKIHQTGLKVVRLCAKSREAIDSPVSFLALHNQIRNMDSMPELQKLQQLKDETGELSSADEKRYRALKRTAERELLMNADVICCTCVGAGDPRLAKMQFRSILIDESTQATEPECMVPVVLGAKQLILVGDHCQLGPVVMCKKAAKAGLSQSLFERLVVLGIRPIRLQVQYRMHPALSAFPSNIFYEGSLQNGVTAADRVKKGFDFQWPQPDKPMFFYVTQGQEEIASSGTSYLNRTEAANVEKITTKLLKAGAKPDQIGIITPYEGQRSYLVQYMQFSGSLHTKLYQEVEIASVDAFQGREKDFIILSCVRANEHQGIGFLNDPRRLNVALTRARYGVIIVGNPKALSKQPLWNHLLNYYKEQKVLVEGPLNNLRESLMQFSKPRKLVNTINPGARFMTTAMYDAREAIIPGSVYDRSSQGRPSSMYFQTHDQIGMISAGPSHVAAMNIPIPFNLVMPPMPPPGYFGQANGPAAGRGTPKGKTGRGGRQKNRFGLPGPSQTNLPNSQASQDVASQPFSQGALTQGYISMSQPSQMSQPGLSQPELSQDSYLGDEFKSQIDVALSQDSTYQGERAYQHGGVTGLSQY", "assay": "co-IP; anti-FLAG IP of FLAG-UPF1 (WT or a variant) from RNase A-treated extracts of transiently transfected HEK293T cells; cells treated with DMSO or MG132 for 12 h (Fig. 5a,b), for polypeptidyl-puro with MG132 12 h and puromycin 1 h (Fig. 5d), with or without eEF1A1 siRNA (Fig. 5e); NET-2 buffer, 4 °C; western blotting", "conditions": "partners not purified"}
{"binder": "B1", "values": [{"measurement": "fold more co-immunopurified than with UPF1-WT or UPF1-HP-12A", "value": "~5", "unit": "fold"}]}
